Measured values: patent US5792629A, “Isolated DNA encoding novel protease inhibitory polypeptide” (Mochida Pharmaceutical Co., Ltd., priority 1990, dated 1998)

B1: UTI: urinary trypsin inhibitor purified from human urine (Mochida Pharmaceutical), used as positive control (protein)
chain: AVLPQEEEGSGGGQLVTEVTKKEDSCQLGYSAGPCMGMTSRYFYNGTSMACETFQYGGCMGNGNNFVTEKECLQTCRTVAACNLPIVRGPCRAFIQLWAFDAVKGKCVLFPYGGCQGNGNKFYSEKECREYCGVPGDGDEELLRFSN
modifications: glycoprotein (sugar moieties, as the filing says in general of UTI)
B2: TL66: polypeptide defined by formula 8; known enzyme-digested fragment of urinary trypsin inhibitor, made in E. coli JE5505 (pM551) (protein)
chain: TVAACNLPIVRGPCRAFIQLWAFDAVKGKCVLFPYGGCQGNGNKFYSEKECREYCGVPGDGDEELL
B3: TN70: polypeptide defined by the amino acid sequence of formula 3, purified from culture supernatant of E. coli JE5505 (pM552) (protein)
chain: TVAACNLPIVRGPCRAFIQLWAFDAVKGKCVLFPYGGCQGNGNKFYSEKECREYCGVPGDGDEELLRFSN

Legend:
FXa = FXa (Homo sapiens, UniProt P00742); test: Human FXa-inhibiting activity, substrate S-2222; type: biochemical; set-up: purchased American Diagnostica Inc; details: for human FXa-inhibiting activity: purified sample, various concentrations, remaining activity vs buffer control (FIG. 18A-C)
Chain of FXa (P00742 235-488 limits assumed): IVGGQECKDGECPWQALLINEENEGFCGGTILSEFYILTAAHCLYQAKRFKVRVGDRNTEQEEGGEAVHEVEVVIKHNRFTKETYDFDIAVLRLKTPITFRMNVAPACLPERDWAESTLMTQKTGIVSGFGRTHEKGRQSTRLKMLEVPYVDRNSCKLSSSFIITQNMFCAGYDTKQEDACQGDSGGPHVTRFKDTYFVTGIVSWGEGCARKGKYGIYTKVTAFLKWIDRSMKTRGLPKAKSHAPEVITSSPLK
Chain of FXa (P00742 41-179 partner limits assumed): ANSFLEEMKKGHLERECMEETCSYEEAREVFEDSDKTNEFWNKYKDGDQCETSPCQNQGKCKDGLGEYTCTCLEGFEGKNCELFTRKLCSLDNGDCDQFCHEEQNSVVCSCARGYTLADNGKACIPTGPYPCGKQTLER
Protocol: The purified sample obtained in Example 1-(5) was dissolved in 100 μl of distilled water. Concentration of this solution was determined based on its bovine trypsin-inhibiting activity using the aforementioned UTI as a standard. The solution was then diluted to various concentration levels with 0.1% BSA/150 mM NaCl/5 mM CaCl2 /50 mM Tris-HCl buffer (pH 8.3) for use in the activity measurement. The UTI was also diluted in the same manner. Using a synthetic compound S-2222 (Daiichi Pure Chemicals Co., Ltd.) as a substrate, human FXa-inhibiting activities of the diluted test samples and the positive control were measured in accordance with the method of Ohno et al. (Ohno,H. et al., Thromb. Res., vol.19, pp.579-588, 1980) as follows.
Human FXa (American Diagnostica Inc.) was dissolved in distilled water to a concentration of 10 PEU/ml and the solution was further diluted with 0.1% BSA/150 mM NaCl/5 mM CaCl2 /50 mM Tris-HCl buffer (pH 8.3) to prepare 0.1 PEU/ml of FXa solution. 4 mM solution of S-2222 was prepared by dissolving it in distilled water and the solution was further diluted with 0.1% BSA/150 mM NaCl/5 MM CaCl2 /50 mM Tris-HCl buffer (pH 8.3) to obtain 2 mM solution of S-2222.
Next, 25 μl of the test sample or positive control was mixed with 100 μl of 0.1% BSA/150 mM NaCl/5 mM CaCl2 /50 mM Tris-HCl buffer (pH 8.3) and 25 μl of the FXa solution. After incubation at 37° C. for 10 minutes, 100 μl of the S-2222 solution was added to the mixture to start the reaction. The reaction was carried out at 37° C. for 30 minutes and then stopped by adding 50 μl of 50% acetic acid solution to the reaction mixture. Thereafter, absorbance at 405 nm was measured using a spectrophotometer.
In this instance, in order to eliminate absorbance of various solutions in the reaction mixture, a blank solution was prepared by mixing 25 μl of the FXa solution with 50 μl of 50% acetic acid and then with 25 μl of each test sample or the positive control, 100 μl of 0.1% BSA/150 mM NaCl/5 mM CaCl2 /50 mM Tris-HCl buffer (pH 8.3) and with 100 μl of the S-2222 solution.
In this figure, human FXa remaining activity was expressed by percentage based on the absorbance of a control reaction mixture in which 25 μl of 0.1% BSA/150 mM NaCl/5 mM CaCl2 /50 mM Tris-HCl buffer (pH 8.3) was used instead of the test sample or the positive control.

Human plasma plasmin = biological target: T1, Human plasma plasmin (Homo sapiens, UniProt P00747); test: Plasmin-inhibiting activity, substrate S-2251; type: biochemical; details: purified sample, various concentrations; remaining activity vs buffer control (FIG. 16A-C)
T1 construct: Human plasma plasmin (Sigma Chemical Co.) was dissolved in physiological saline; purchased Sigma Chemical Co; host or cells: human plasma
T1 sequence (P00747 97-810): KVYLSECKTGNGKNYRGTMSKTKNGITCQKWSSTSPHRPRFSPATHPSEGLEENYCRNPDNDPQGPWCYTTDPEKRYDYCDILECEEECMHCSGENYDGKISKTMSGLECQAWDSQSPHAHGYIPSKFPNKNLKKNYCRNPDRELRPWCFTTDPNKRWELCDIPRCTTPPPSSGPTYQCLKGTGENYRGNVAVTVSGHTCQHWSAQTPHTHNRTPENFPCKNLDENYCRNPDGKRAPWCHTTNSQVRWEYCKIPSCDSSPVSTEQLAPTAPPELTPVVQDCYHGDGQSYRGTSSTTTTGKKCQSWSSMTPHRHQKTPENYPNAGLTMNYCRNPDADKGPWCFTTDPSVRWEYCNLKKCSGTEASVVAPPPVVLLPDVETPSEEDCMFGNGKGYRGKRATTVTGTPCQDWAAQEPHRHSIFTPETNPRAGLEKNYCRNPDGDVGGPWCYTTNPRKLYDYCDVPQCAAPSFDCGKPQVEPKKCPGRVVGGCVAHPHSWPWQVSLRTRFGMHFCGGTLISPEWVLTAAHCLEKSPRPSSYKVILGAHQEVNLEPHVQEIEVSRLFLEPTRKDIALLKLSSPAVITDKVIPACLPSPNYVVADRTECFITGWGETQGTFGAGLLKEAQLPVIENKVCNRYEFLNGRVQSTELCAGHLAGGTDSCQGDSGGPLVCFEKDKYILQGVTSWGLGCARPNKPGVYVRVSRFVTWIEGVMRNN
Protocol: The purified sample obtained in Example 1-(5) was dissolved in 100 μl of distilled water. Concentration of this solution was determined based on its bovine trypsin-inhibiting activity using the aforementioned UTI as a standard. The solution was then diluted to various concentration levels with 0.11M NaCl/50 mM Tris-HCl buffer (pH 7.4) for use in the activity measurement. The UTI was also diluted in the same manner. Using a synthetic compound S-2251 (Daiichi Pure Chemicals Co., Ltd.) as a substrate, human plasmin-inhibiting activities of the diluted test samples and the positive control were measured in accordance with the method of Friberger et al. (Friberger,P. et al., Haemostasis, vol.7, pp.138-145, 1978).
Human plasma plasmin (Sigma Chemical Co.) was dissolved in physiological saline to a concentration of 1 U/ml and the solution was further diluted with 50% glycerol/2 mM HCl solution to prepare 0.1 U/ml of plasmin solution. 3.5 mM solution of S-2251 was prepared by dissolving it in distilled water.
Next, 50 μl of the test sample or positive control was mixed with 50 μl of the plasmin solution and 100 μl of 0.11M NaCl/50 mM Tris-HCl buffer (pH 7.4). After incubation at 37° C. for 10 minutes, 50 μl of the S-2251 solution was added to the mixture to start the reaction. The reaction was carried out at 37° C. for 2 minutes and then stopped by adding 25 μl of 50% acetic acid solution to the reaction mixture. Thereafter, absorbance at 405 nm was measured using a spectrophotometer.
In this instance, in order to eliminate absorbance of various solutions in the reaction mixture, a blank solution was prepared by mixing 50 μl of the plasmin solution with 25 μl of 50% acetic acid and then with 50 μl of each test sample or the positive control, 100 μl of 0.11M NaCl/50 mM Tris-HCl buffer (pH 7.4) and with 50 μl of the S-2251 solution.
In this figure, human plasmin remaining activity was expressed by percentage based on the absorbance of a control reaction mixture in which 50 μl of 0.11M NaCl/50 mM Tris-HCl buffer (pH 7.4) was used instead of the test sample or the positive control.

| Molecule | human FXa-inhibiting activity (FXa) | human plasmin-inhibiting activity (Human plasma plasmin) | FXa-inhibiting activity (FXa; experiments of the inventors, even at an extremely high concentration) |
| --- | --- | --- | --- |
| CC51: polypeptide defined by the amino acid sequence of formula 1, purified from culture supernatant of E. coli JE5505 (pM560) (CNLPIVRGPCRAFIQLWAFDAVKGKCVLFPYGGCQGNGNKFYSEKECREYC) | activity was found | activity was found |  |
| B1 | activity was not found | activity was found | no FXa-inhibiting activity was found |
| B2 | activity was found | activity was found |  |
| B3 | activity was found | activity was found |  |
